Assay [1] addresses WT ORF18 ArdA (Streptococcus faecalis (Tn916 conjugative transposon)). As to the kind of experiment: AUC; sedimentation equilibrium at 3.0 μM and 0.6 μM (monomers); 17 000, 27 000 and 35 000 r.p.m.; 20 °C; 200 mM NaCl, 20 mM Tris, 20 mM MES, 1 mM TCEP, pH 6.5; SEDPHAT.
Assay [2] shares this target. As to the kind of experiment: AUC; sedimentation equilibrium at 15 μM (monomers); 17 000, 27 000 and 35 000 r.p.m.; 20 °C; 200 mM NaCl, 20 mM Tris, 20 mM MES, 1 mM TCEP, pH 6.5; SEDPHAT; dimer to monomers.
For assay [3], the target named is EcoKI Type I RM enzyme (E. coli (endogenous in E. coli NM1049(DE3))) (UniProt P08956).
Assay [4] deals with L127E ArdA (Streptococcus faecalis (Tn916 conjugative transposon)). Nature of the assay: AUC; sedimentation equilibrium at 15 μM (monomers); 17 000, 27 000 and 35 000 r.p.m.; 20 °C; 200 mM NaCl, 20 mM Tris, 20 mM MES, 1 mM TCEP, pH 6.5; SEDPHAT; dimer to monomers.

For orientation: stoichiometry N means a count of units in the complex or per binding partner. In the case of WT ORF18 ArdA (natural protein), the stoichiometry N in assay [1] and in assay [2] was 2 each time.

What is called Kd is the free concentration of one partner at which half of the binding sites on the other are occupied at equilibrium, for simple one-to-one binding. Read a high Kd as weaker binding. With L127E ArdA (natural protein), the antimodification in vivo: titre ratio of phage λv.0 recovered from E. coli NM1049(DE3) expressing the ArdA protein (WT ORF18 ArdA 122.0; vector 0.9) in assay [3] stood at 1. Moreover, in assay [4], the Kd was found to be 10 µM and the stoichiometry N was found to be 2.

The values above are taken from PMC3906837.
